From the supplement of paper PMC5998384 come the findings set out here.

Data set [1] has as its system HeLa Kyoto. The data set is described as follows: melting temperature (median over replicates), in situ; higher = more thermally stable.
In data set [2] the test system is HeLa Kyoto. The data set is described as follows: thermal stability score vs G1/S (z-score of summed log2 fold changes over temperatures); higher = more thermally stable than in G1/S.
Data set [3] relates to HeLa Kyoto. Nature of the data set: solubility in G1/S (NP-40 vs SDS abundance) (log2 ratio); higher = more soluble. The following applies: cell cycle stage: G1/S.
Data set [4] concerns HeLa Kyoto. Nature of the data set: solubility change mitosis vs G1/S (difference of NP-40 vs SDS log2 ratios) (log2 ratio difference); higher = more soluble in mitosis.
The mark [5] stands for this setting: cell cycle stage: early G1 (4.5 h after nocodazole release).
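For melting temperature (median over replicates), in situ in this document: HeLa Kyoto cells synchronized by double thymidine or nocodazole block, proteins quantified by TMT10plex mass spectrometry, three independent biological replicates.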
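For solubility change mitosis vs G1/S (difference of NP-40 vs SDS log2 ratios) in this document: synchronized HeLa Kyoto cells (double thymidine block for G1/S, nocodazole release for mitosis), protein amounts in NP-40 versus SDS lysates quantified by mass spectrometry, three biological replicates.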
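For solubility in G1/S (NP-40 vs SDS abundance) in this document: HeLa Kyoto cells arrested at G1/S by double thymidine block, proteins quantified by TMT10plex mass spectrometry in mild NP-40 versus SDS extracts, three biological replicates.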
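For thermal stability score vs G1/S (z-score of summed log2 fold changes over temperatures) in this document: synchronized HeLa Kyoto cells, proteins quantified by TMT10plex mass spectrometry, three biological replicates, mitosis taken 0.5 h after nocodazole release, G1/S directly after double thymidine block.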

Turning to “MATGLGEPVYGLSEDEGESRILRVKVVSGIDLAKKDIFGASDPYVKLSLYVADENRELALVQTKTIKKTLNPKWNEEFYFRVNPSNHRLLFEVFDENRLTRDDFLGQVDVPLSHLPTEDPTMERPYTFKDFLLRPRSHKSRVKGFLRLKMAYMPKNGGQDEENSDQRDDMEHGWEVVDSNDSASQHQEELPPPPLPPGWEEKVDNLGRTYYVNHNNRTTQWHRPSLMDVSSESDNNIRQINQEAAHRRFRSRRHISEDLEPEPSEGGDVPEPWETISEEVNIAGDSLGLALPPPPASPGSRTSPQELSEELSRRLQITPDSNGEQFSSLIQREPSSRLRSCSVTDAVAEQGHLPPPSAPAGRARSSTVTGGEEPTPSVAYVHTTPGLPSGWEERKDAKGRTYYVNHNNRTTTWTRPIMQLAEDGASGSATNSNNHLIEPQIRRPRSLSSPTVTLSAPLEGAKDSPVRRAVKDTLSNPQSPQPSPYNSPKPQHKVTQSFLPPGWEMRIAPNGRPFFIDHNTKTTTWEDPRLKFPVHMRSKTSLNPNDLGPLPPGWEERIHLDGRTFYIDHNSKITQWEDPRLQNPAITGPAVPYSREFKQKYDYFRKKLKKPADIPNRFEMKLHRNNIFEESYRRIMSVKRPDVLKARLWIEFESEKGLDYGGVAREWFFLLSKEMFNPYYGLFEYSATDNYTLQINPNSGLCNEDHLSYFTFIGRVAGLAVFHGKLLDGFFIRPFYKMMLGKQITLNDMESVDSEYYNSLKWILENDPTELDLMFCIDEENFGQTYQVDLKPNGSEIMVTNENKREYIDLVIQWRFVNRVQKQMNAFLEGFTELLPIDLIKIFDENELELLMCGLGDVDVNDWRQHSIYKNGYCPNHPVIQWFWKAVLLMDAEKRIRLLQFVTGTSRVPMNGFAELYGSNGPQLFTIEQWGSPEKLPRAHTCFNRLDLPPYETFEDLREKLLMAVENAQGFEGVD [NEDD4L]”, the melting temperature amounted to 50 °C in data set [1] (cell cycle stage: G1/S) and 49.6 °C in data set [1] (cell cycle stage: mitosis). Moreover, the thermal stability score in data set [2] (setting [5]) is 0.949; in data set [2] (cell cycle stage: mitosis), 2.33. Besides, the “solubility in G1/S (log2)” value in data set [3] is -0.0714. Moreover, in data set [4], the “solubility change mitosis (log2)” value is -0.189.
In the case of “MATIPDWKLQLLARRRQEEASVRGREKAERERLSQMPAWKRGLLERRRAKLGLSPGEPSPVLGTVEAGPPDPDESAVLLEAIGPVHQNRFIRQERQQQQQQQQRSEELLAERKPGPLEARERRPSPGEMRDQSPKGRESREERLSPRETRERRLGIGGAQELSLRPLEARDWRQSPGEVGDRSSRLSEAWKWRLSPGETPERSLRLAESREQSPRRKEVESRLSPGESAYQKLGLTEAHKWRPDSRESQEQSLVQLEATEWRLRSGEERQDYSEECGRKEEWPVPGVAPKETAELSETLTREAQGNSSAGVEAAEQRPVEDGERGMKPTEGWKWTLNSGKAREWTPRDIEAQTQKPEPPESAEKLLESPGVEAGEGEAEKEEAGAQGRPLRALQNCCSVPSPLPPEDAGTGGLRQQEEEAVELQPPPPAPLSPPPPAPTAPQPPGDPLMSRLFYGVKAGPGVGAPRRSGHTFTVNPRRSVPPATPATPTSPATVDAAVPGAGKKRYPTAEEILVLGGYLRLSRSCLAKGSPERHHKQLKISFSETALETTYQYPSESSVLEELGPEPEVPSAPNPPAAQPDDEEDEEELLLLQPELQGGLRTKALIVDESCRR [PPP1R18]”, the melting temperature in data set [1] (cell cycle stage: G1/S) came to 52.5 °C; in data set [1] (cell cycle stage: mitosis), 52 °C. For the same sequence, the thermal stability score came out at 0.778 in data set [2] (setting [5]) and 0.67 in data set [2] (cell cycle stage: mitosis). The “solubility in G1/S (log2)” value in data set [3] was -0.53. Besides, the “solubility change mitosis (log2)” value in data set [4] is 0.428.
With “MATLRRLREAPRHLLVCEKSNFGNHKSRHRHLVQTHYYNYRVSFLIPECGILSEELKNLVMNTGPYYFVKNLPLHELITPEFISTFIKKGSCYALTYNTHIDEDNTVALLPNGKLILSLDKDTYEETGLQGHPSQFSGRKIMKFIVSIDLMELSLNLDSKKYERISWSFKEKKPLKFDFLLAWHKTGSEESTMMSYFSKYQIQEHQPKVALSTLRDLQCPVLQSSELEGTPEVSCRALELFDWLGAVFSNVDLNNEPNNFISTYCCPEPSTVVAKAYLCTITGFILPEKICLLLEHLCHYFDEPKLAPWVTLSVQGFADSPVSWEKNEHGFRKGGEHLYNFVIFNNQDYWLQMAVGANDHCPP [RPP40]”, the melting temperature was 55.5 °C in data set [1] (cell cycle stage: G1/S) and 56.5 °C in data set [1] (cell cycle stage: mitosis). In addition, the thermal stability score was -1.89 in data set [2] (setting [5]) and -4.46 in data set [2] (cell cycle stage: mitosis). The “solubility in G1/S (log2)” value in data set [3] is -0.386. Further, the “solubility change mitosis (log2)” value in data set [4] was -0.00249.
Take “MATPVVTKTAWKLQEIVAHASNVSSLVLGKASGRLLATGGDDCRVNLWSINKPNCIMSLTGHTSPVESVRLNTPEELIVAGSQSGSIRVWDLEAAKILRTLMGHKANICSLDFHPYGEFVASGSQDTNIKLWDIRRKGCVFRYRGHSQAVRCLRFSPDGKWLASAADDHTVKLWDLTAGKMMSEFPGHTGPVNVVEFHPNEYLLASGSSDRTIRFWDLEKFQVVSCIEGEPGPVRSVLFNPDGCCLYSGCQDSLRVYGWEPERCFDVVLVNWGKVADLAICNDQLIGVAFSQSNVSSYVVDLTRVTRTGTVARDPVQDHRPLAQPLPNPSAPLRRIYERPSTTCSKPQRVKQNSESERRSPSSEDDRDERESRAEIQNAEDYNEIFQPKNSISRTPPRRSEPFPAPPEDDAATAKEAAKPSPAMDVQFPVPNLEVLPRPPVVASTPAPKAEPAIIPATRNEPIGLKASDFLPAVKIPQQAELVDEDAMSQIRKGHDTMCVVLTSRHKNLDTVRAVWTMGDIKTSVDSAVAINDLSVVVDLLNIVNQKASLWKLDLCTTVLPQIEKLLQSKYESYVQTGCTSLKLILQRFLPLITDMLAAPPSVGVDISREERLHKCRLCYKQLKSISGLVKSKSGLSGRHGSTFRELHLLMASLD [KATNB1]”: the melting temperature came to 50.5 °C in data set [1] (cell cycle stage: G1/S) and 51 °C in data set [1] (cell cycle stage: mitosis). In addition, the thermal stability score came to 0.62 in data set [2] (setting [5]) and 0.499 in data set [2] (cell cycle stage: mitosis). The “solubility in G1/S (log2)” value in data set [3] was -0.135. In data set [4], the “solubility change mitosis (log2)” value was -0.0538.
“MATSATSPHAPGFPAEGRCGYYVEKKKRFCRMVVAAGKRFCGEHAGAAEEEDARKRILCPLDPKHTVYEDQLAKHLKKCNSREKPKPDFYIQDINAGLRDETEIPEQLVPISSLSEEQLEKLIKKLRKASEGLNSTLKDHIMSHPALHDALNDPKNGDSATKHLKQQASILGNIENLKLLGPRRCFVEFGAGKGKLSHWVDIALKDAEKVHFILVEKVTTRFKVDGKHRKKNSVFERLQIDIQHLCLNKIPVLREEKLPVVGIGKHLCGMATDLALRCLVETYAASFEERNEEPLAKRIKNDKTEKEIYTLAKEGNEKNVPEKWNPVAGIVIALCCHHRCDWRHYVGKEYFRALGLGAVEFHYFQRMSSWATCGMRKTSLETSNSTTKRQDNQNDDSEEHDDGGYRITDDGADCLPGLLSVEEKKKIGHLCKLLIDQGRIQYLQQKGFSPALQYYTDPLVSLENVLLTALPNHSSSPETTA [TRMT13]” gave a melting temperature in data set [1] (cell cycle stage: mitosis) of 50.3 °C. Further, the results for the thermal stability score in data set [2] (setting [5]) and in data set [2] (cell cycle stage: mitosis) were 1.03 and 0.684, respectively. For the same sequence, the “solubility in G1/S (log2)” value in data set [3] stood at 0.027. Further, in data set [4], the “solubility change mitosis (log2)” value was -0.0657.
